# Test results as given in US20210238294A1 (JIANGSU HENGRUI MEDICINE, published 2021).
# Positions count from the first letter of the chain named. Read-outs that look alike come from different tables or passages of the source.
# B1: humanized antibody hu7B10 (with VH-b heavy chain and VL-b light chain) (antibody, human IgG1, kappa, V domains shown)
# VH: EVQLVQSGAEVKKPGASVKVSCKASGYTFTSYWMHWVRQAPGQGLEWMGLIHPNSDTTKFSENFKTRVTMTIDTSISTAYMELSRLRSDDTAVYYCAKSKIITTIVARHWYFDVWGQGTTVTVSS
# VL: DIVLTQTPLSLSVTPGQPASISCKASQSVDYGGDSYMNWYLQKPGQPPQLLIYAASNLESGVPDRFSGSGSGTDFTLKISRVEAEDVGVYYCQHSNENPPTFGGGTKVEIKR
# B2: Dupilumab (antibody, V domains shown)
# VH: EVQLVESGGGLEQPGGSLRLSCAGSGFTFRDYAMTWVRQAPGKGLEWVSSISGSGGNTYYADSVKGRFTISRDNSKNTLYLQMNSLRAEDTAVYYCAKDRLSITIRPRYYGLDVWGQGTTVTVSS
# VL: DIVMTQSPLSLPVTPGEPASISCRSSQSLLYSIGYNYLDWYLQKSGQSPQLLIYLGSNRASGVPDRFSGSGSGTDFTLKISRVEAEDVGFYYCMQALQTPYTFGQGTKLEIKR
# B3: human-mouse chimeric antibody 7B10-C (antibody, V domains shown)
# VH: QVQLQQPGTELLKPGASVSLSCKASGYTFTSYWMHWVKQRPGQGLEWIGLIHPNSDTTKFSENFKTRATLTIDKSSSTAYMKLSSLTSEDSAVYYCAKSKIITTIVARHWYFDVWGTGTTVTVSS
# VL: DIVLTQSPPSLAVSLGQRATISCKASQSVDYGGDSYMNWYQQKLGQPPKVLIYAASNLESGIPARFSGSGSGTDFTLNIHPVEEEDVATYYCQHSNENPPTFGGGTKLEIK
# B4: mouse monoclonal antibody 7B10 (antibody, V domains shown)
# VH: B3 VH
# VL: B3 VL
# B5: murine monoclonal antibody 25G7 (antibody, V domains shown)
# VH: EVQLVESGGGLVKPGGSLKLSCAASGFTFSDYGMHWVRQAPEKGLEWVAFISSGSSIIYYADIVKGRSTISRDNAKNTLFLQMTSLRSEDTAMYYCTRGNKRGFFDYWGQGTILTVSS
# VL: QIVLTQSPALMSASPGEKVTMTCNASSSVSYMYWYQRKPRSSPKPWIYLTSNLASGVPVRFSGSGSGTSYSLTISSMEAEDAATYYCQQWRSNPPMLTFGSGTKLEVK
# B6: affinity-matured humanized antibody hu25G7-A (antibody, human IgG4 S228P, kappa, V domains shown)
# VH: B5 VH with K13Q, K19R, E42G, F80Y, T84N, S88A, M93V, I113L, L114V
# VL: EIVLTQSPATLSLSPGERATLSCRASSSVPYMYWYQQKPGQAPRLLIYLTSNLASGIPARFSGSGSGTDFTLTISSLEPEDFAVYYCQQWRAYPPMLTFGGGTKVEIKR
# B7: human-mouse chimeric antibody 25G7-C (antibody, V domains shown)
# VH: B5 VH
# VL: B5 VL
# B8: affinity-matured humanized antibody hu25G7-B (antibody, human IgG4 S228P, kappa, V domains shown)
# VH: B5 VH with K13Q, K19R, E42G, F80Y, T84N, S88A, M93V, I113L, L114V
# VL: EIVLTQSPATLSLSPGERATLSCRASPGVPPLAWYQQKPGQAPRLLIYLASSRPSGIPARFSGSGSGTDFTLTISSLEPEDFAVYYCQQWRSNPPMLTFGGGTKVEIKR
# B9: humanized antibody hu25G7 (with VH-c heavy chain and VL-a light chain) (antibody, human IgG4 S228P, kappa, V domains shown)
# VH: B5 VH with K13Q, K19R, E42G, T78S, F80Y, T84N, S88A, M93V, I113L, L114V
# VL: B6 VL with R24N, P30S, A92S, Y93N
# Assays:
# Assay in all cases: cell-based or functional assay
# [1] = target: T1, human IL-4R on cells (HEK-Blue IL-4 cells, TF-1 cells) (human, UniProt P24394 26-825)
# [2] = target: T1, human IL-4R on cells (HEK-Blue IL-4 …); remark: listed apart in the source
# [3] = target: T1, human IL-4R on cells (HEK-Blue IL-4 …); remark: listed apart in the source
# [4] = target: T1, human IL-4R on cells (HEK-Blue IL-4 …); remark: listed apart in the source
Binder,Inhibiting the proliferation of TF-1 cell by IL-4 (IC50) [1] [µg/mL],blocking the binding of HEK293-Blue IL-4 cell (to IL-4) (IC50) [1] [µg/mL],Inhibiting the proliferation of TF-1 cells by IL-4 (IC50) [2] [µg/mL],blocking of the binding of HEK293-Blue IL-4 cell (to IL-4) (IC50) [2] [µg/mL],Inhibiting the proliferation of TF-1 cells by IL-4 (IC50) [3] [µg/mL],blocking the binding of HEK293-Blue IL-4 cell (to IL-4) (IC50) [3] [µg/mL],Inhibiting the proliferation of TF-1 cell by IL-13 (IC50) [4] [µg/mL],Inhibiting the proliferation of TF-1 cells by IL-4 (IC50) [4] [µg/mL],blocking the binding of HEK293-Blue cells (with IL-4) (IC50) [4] [µg/mL],blocking the binding of HEK293-Blue cells (with IL-13) (IC50) [4] [µg/mL]
B1,0.112,0.00687,,,,,,,,
B2,0.491,0.000667,0.102,0.00507,0.207,0.00324,0.0181,0.101,0.0125,0.0148
B3,,,,,0.0464,0.00903,,,,
B4,,,0.418,0.0798,,,,,,
B5,,,0.0513,0.000975,,,,,,
B6,,,,,,,0.0132,0.0837,0.00649,0.01
B7,,,,,0.0203,0.00202,,,,
B8,,,,,,,0.0137,0.051,0.0066,0.00838
B9,0.0296,0.000943,,,,,,,,
